Experimental data taken from article PMC4835082.

What was measured:
factor X = factor X (UniProt P00742)
factor Xa = factor Xa (UniProt P00742)

daboxin P, sequence (C0HK16 whole entry): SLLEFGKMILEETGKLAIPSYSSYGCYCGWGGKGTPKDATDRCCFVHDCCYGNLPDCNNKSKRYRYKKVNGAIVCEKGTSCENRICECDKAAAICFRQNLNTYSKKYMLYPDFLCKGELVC

alkylated daboxin P (enzyme)
residual activity of ETC treated with alkylated daboxin P (3 uM) (factor X): 23%
residual activity of ITC treated with alkylated daboxin P (3 uM) (factor X): 19%

daboxin P (enzyme)
IC50 of inhibition of FXa generation by the extrinsic tenase complex (ETC), in the presence of phospholipids, chromogenic substrate S-2222 (factor X): 0.00043 µM
IC50 of inhibition of FXa generation by the intrinsic tenase complex (ITC), in the presence of phospholipids, chromogenic substrate S-2222 (factor X): 0.0392 µM
residual activity of ETC (with phospholipids) upon treatment with 3 uM of daboxin P (factor X): 9.05%
residual activity of ETC reconstituted without phospholipid, treated with daboxin P (factor X): 25%
residual activity of ITC (with phospholipids) upon treatment with 3 uM of daboxin P (factor X): 2.8%
residual activity of ITC reconstituted without phospholipid, treated with daboxin P (factor X): 20.1%
residual activity of the prothrombinase complex (thrombin formation, S-2238) when daboxin P was pre-incubated with FXa followed by addition of FVa (factor Xa): 11.3%
